This passage reports %Blocking results from patent US20250313625A1.

Like-named read-outs stand apart in the source and are kept apart here.

Assay [1] deals with mFc tagged human LAG3 ECD recombinant protein (human) (UniProt P18627). The assay is described as follows: competitive ELISA: mFc tagged human LAG3 ECD binding to plate coated LSECtin ECD.
Assay [2] has the same target. The experiment in a line: competitive FACS: mFc tagged human LAG3 ECD binding to MHC II on Raji cells.
Assay [3] has the same target. The assay is described as above. The source holds these as a separate data set.

Sequence of mFc tagged human LAG3 ECD recombinant protein (human) (P18627 23-450): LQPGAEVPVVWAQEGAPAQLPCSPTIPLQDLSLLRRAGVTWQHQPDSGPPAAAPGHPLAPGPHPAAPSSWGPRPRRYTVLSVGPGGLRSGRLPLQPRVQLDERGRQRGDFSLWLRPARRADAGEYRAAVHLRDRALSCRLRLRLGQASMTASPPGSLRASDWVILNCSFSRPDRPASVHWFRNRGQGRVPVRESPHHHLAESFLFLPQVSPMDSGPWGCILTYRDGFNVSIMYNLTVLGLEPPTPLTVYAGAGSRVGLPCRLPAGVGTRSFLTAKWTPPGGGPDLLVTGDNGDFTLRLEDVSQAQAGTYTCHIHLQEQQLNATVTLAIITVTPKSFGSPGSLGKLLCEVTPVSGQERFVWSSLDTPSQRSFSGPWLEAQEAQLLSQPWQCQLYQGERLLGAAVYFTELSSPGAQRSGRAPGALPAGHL

For hIgG4 (antibody), in assay [1], the %Blocking at 4 nM was 1.3%, the %Blocking at 20 nM was determined as 5.6% and the %Blocking at 100 nM was determined as 7.4%. Moreover, in assay [2], the %Blocking at 2 nM was determined as 5.7% and the %Blocking at 8 nM was 3.4%. Also, the %Blocking at 8 nM in assay [3] came out at 10.9%.
